Assay results: patent US8465981B2, “Polypeptides, systems, and methods useful for detecting glucose” (University of Kentucky Research Foundation, priority 2007, dated 2013)

Legend:
Assay type in all cases: binding
[1] = Fragments of wtGBP in response to glucose: fluorescence quenching of labeled tGBPs; settings: labeled tGBP 1×10^-7 M
Method: (§1) Once the PCR amplified gene fragments were obtained, they were inserted into expression vector pQE70. The constructed expression plasmids were then transformed into the auxotrophic strain of E. coli. Protein expression was performed using medium shift method. A single freshly transformed colony was used to inoculate 5 mL of M9 media supplemented with 0.4% glucose; 1 mM MgSO4; 0.1 mM CaCl2; 1 mM Thiamine; 0.1 volume of a solution containing 0.01% (w/v) each of 20 amino acids, less any amino acid that is to be replaced by unnatural amino acids (e.g., each of 19 amino acids where one is to be replaced); 40 μg/mL of the remaining amino acid(s) (e.g., 20th amino acid), and appropriate amount of antibiotic. T his culture was allowed to grow overnight at 37° C., 250 rpm. 500 mL culture containing the same ingredients was inoculated with the overnight grown 5 mL culture. This culture was then grown until the optical density (OD600) was about 0.5. The cells were then centrifuged at 10000 rpm for 10 min, 25° C., the supernatant was discarded and the cells were resuspended in a 0.9% NaCl solution for washing, and this was repeated three times. The cells were then resuspended in 500 mL M9 minimal media which was supplemented with 0.4% glucose, 1 mM MgSO4, 0.1 mM CaCl2, 1 mM Thiamine, 0.1 volume of a solution containing 0.01% (w/v) each of 20 amino acids less any amino acid(s) to be replaced by unnatural amino acids (e.g., 19 amino acids), appropriate amount of antibiotic, and grown at 37° C. for 30 min to further deplete natural amino acid that has to be replaced by the unnatural amino acid. 1 mM IPTG was then added with 0.1 mM of unnatural amino acid to the culture and was grown overnight at 37° C. The cells were harvested by centrifugation and the protein was purified using Ni-NTA resin since GBP mutant has His-tag. The purified protein was then labeled with fluorophore MDCC (N-[2-(1-maleimidyl(ethyl]-7-(diethylamino)coumarin-3-carboxamide), e.g., labeled at cysteine-152 of SEQ ID NO: 1.
Fragments of wtGBP in Response to Glucose. In order to check for activity of the labeled tGBPs, an assay was performed. Upon glucose binding, the proteins should undergo a conformational change, resulting in a change in the local environment of the fluorophore molecule, which leads to a change in the fluorescence signal observed. The assay was carried out by preparing glucose solutions of concentrations ranging from 1×10^−1M to 1×10^−6M. These glucose standards were then added to 180 μL samples of the labeled tGBPs at a concentration of 1×10^−7M. The resulting fluorescence intensity was measured. The results obtained from one study including the isolated polypeptide molecules of SEQ ID NO: 2 (tGBP1) and SEQ ID NO: 3 (tGBP2) are presented in Table C.

[2] = Fluorescence response to glucose of MDCC-labeled fragment amino acids 87-271 of wtGBP
From the text: Expression and Labeling of Isolated Polypeptide Molecules. In order to obtain the gene for insertion into an expression vector, PCR amplification was employed. Primers were designed to amplify isolated polypeptide molecules of interest, e.g., polypeptide molecules of SEQ ID NOS: 1-7, and a fragment including amino acids 87-271 of SEQ ID NO: 1.
as §1

[3] = Unnatural analogues of wtGBP in response to glucose: fluorescence dose response; settings: labeled protein 5×10^-7 M, glucose 10^-2 M-10^-8 M, 15 min, room temperature
From the text: Unnatural Analogues of wtGBP with Unnatural Tryptophans. Unnatural analogues of wtGBP from E. coli were produced, where natural tryptophans were replaced with unnatural tryptophans. Tryptophan auxotrophic strain of E. coli (#27873) was obtained. Plasmid placI and plasmid pQE70 containing the genetic sequence of the wtGBP mutated at 152 (containing a cysteine in this position for fluorophore attachment) were transformed into the tryptophan auxotrophic strain of E. coli. Protein expression was performed using medium shift method. A single freshly transformed colony was used to inoculate 5 mL of M9 media supplemented with 0.4% glucose, 1 mM MgSO4, 0.1 mM CaCl2, 1 mM Thiamine, 0.1 volume of a solution containing 0.01% (w/v) each of 18 amino acids (less Trp and Leu), 40 μg/mL Leu, 40 μg/mL Trp, 100 μg/mL Ampicillin, and 35 μg/mL Chloramphenicol.
This culture was allowed to grow overnight at 37° C., 250 rpm. 500 mL culture containing the same ingredients was inoculated with the overnight grown 5 mL culture. This culture was then grown till the optical density (OD600) was about 0.5. […]
Unnatural Analogues of wtGBP in Response to Glucose. […] Fluorescence of the samples was then measured using a Carry Eclipse Fluorimeter.

Molecule	Percent Fluorescence Quenching ([1]; Glucose 1 × 10^-1 M) [%]	Percent Fluorescence Quenching ([1]; Glucose 1 × 10^-2 M) [%]	Percent Fluorescence Quenching ([1]; Glucose 1 × 10^-3 M) [%]	Percent Fluorescence Quenching ([1]; Glucose 1 × 10^-4 M) [%]	Percent Fluorescence Quenching ([1]; Glucose 1 × 10^-5 M) [%]	Percent Fluorescence Quenching ([1]; Glucose 1 × 10^-6 M) [%]	Change in fluorescence intensity with increasing concentrations of glucose [3]	other results
tGBP1: fragment of wtGBP from E. coli including amino acids 14-296 of SEQ ID NO: 1	20.37	14.61	7.5538	2.433	2.908	−0.09539	–	–
fragment containing amino acids 87-271: fragment containing amino acids 87-271 of wtGBP from E. coli (SEQ ID NO: 1) (protein, E. Coli) VVFFNKEPSRKALDSYDKAYYVGTDSKESGIIQGDLIAKHWAANQGWDLNKDGQIQFVLLKGEPGCPDAEARTTYVIKELNDKGIKTEQLQLDTAMWDTAQAKDKMDAWLSGPNANKIEVVIANNDAMAMGAVEALKAHNKSSIPVFGVDALPEALALVKSGALAGTVLNDANNQAKATFDLAKN	–	–	–	–	–	–	–	Fluorescence Intensity (AVG) ([2]; Glucose Concentration 0 M): 485.282; Fluorescence Intensity (AVG) ([2]; Glucose Concentration 1.00E-03 M): 468.792; Fluorescence Intensity (AVG) ([2]; Glucose Concentration 1.00E-04 M): 467.383; Fluorescence Intensity (AVG) ([2]; Glucose Concentration 1.00E-05 M): 478.877; Fluorescence Intensity (AVG) ([2]; Glucose Concentration 1.00E-06 M): 497.146; Fluorescence Intensity (AVG) ([2]; Glucose Concentration 1.00E-07 M): 463.041; Fluorescence Intensity (AVG) ([2]; Glucose Concentration 1.00E-08 M): 442.682; Response to glucose (trend of fluorescence) ([2]; glucose 0 to 1.00E-03 M): large error and no clear trend in response to glucose
SEQ ID NO: 3, where all natural tryptophans are replaced with 5-fluorotryptophans: unnatural analogue fragment of wtGBP, MDCC labeled (protein, all Trp to 5-fluorotryptophan; MDCC label; E. Coli, unnatural analogue fragment of wtGBP, MDCC labeled) DNFMSVVRKAIEQDAKAAPDVQLLMNDSQNDQSKQNDQIDVLLAKGVKALAINLVDPAAAGTVIEKARGQNVPVVFFNKEPSRKALDSYDKAYYVGTDSKESGIIQGDLIAKHWAANQGWDLNKDGQIQFVLLKGEPGHPDAEARTTYVIKELNDKGIKTEQLQLDTAMWDTAQAKDKMDAWLSGPNANKIEVVIANNDAMAMGAVEALKAHNKSSIPVFGVDALPEALALVKSGALAGTVLN	–	–	–	–	–	–	dose-dependent change in fluorescence intensities	–
SEQ ID NO: 3, where all natural leucines are replaced with 5,5,5-trifluoroleucines: unnatural analogue fragment of wtGBP, MDCC labeled (protein, all Leu to 5,5,5-trifluoroleucine; MDCC label; E. Coli, unnatural analogue fragment of wtGBP, MDCC labeled) DNFMSVVRKAIEQDAKAAPDVQLLMNDSQNDQSKQNDQIDVLLAKGVKALAINLVDPAAAGTVIEKARGQNVPVVFFNKEPSRKALDSYDKAYYVGTDSKESGIIQGDLIAKHWAANQGWDLNKDGQIQFVLLKGEPGHPDAEARTTYVIKELNDKGIKTEQLQLDTAMWDTAQAKDKMDAWLSGPNANKIEVVIANNDAMAMGAVEALKAHNKSSIPVFGVDALPEALALVKSGALAGTVLN	–	–	–	–	–	–	dose-dependent change in fluorescence intensities	–
tGBP2: fragment of wtGBP from E. coli including amino acids 14-256 of SEQ ID NO: 1 (protein, E. Coli) DNFMSVVRKAIEQDAKAAPDVQLLMNDSQNDQSKQNDQIDVLLAKGVKALAINLVDPAAAGTVIEKARGQNVPVVFFNKEPSRKALDSYDKAYYVGTDSKESGIIQGDLIAKHWAANQGWDLNKDGQIQFVLLKGEPGHPDAEARTTYVIKELNDKGIKTEQLQLDTAMWDTAQAKDKMDAWLSGPNANKIEVVIANNDAMAMGAVEALKAHNKSSIPVFGVDALPEALALVKSGALAGTVLN	6.266	7.502	8.966	5.874	2.795	1.748	–	–
